These results are taken from a protein production outcome set (Wang et al. 2014).

The series can be described thus: label from the status in PepcDB records.
On to “MKQLPKTRTALLLAFLVIMWGVNWPLSKAALAYSPPLLFAGIRTLIGGLLLVIVALPRIHKLRLKETWPIYLVSALLNITLFYGLQTIGLNYLPAGLFSAIVFFQPVLMGVFSWLWLGESMFVMKVIGLILGFAGVAVISAAGFGGHISVIGVLLALGSAVSWALGTVYMKKTGSRVDSIWMVALQLTIGSVFLLISGFWTESFSAIQWTAPFITSLLFISVFVIALGWLVFFTLVGSGEASKVASYTFLIPLISIVASSIFLHEPLTLSLLAGLLLIVTSICLVNTKSKAQKAAAIGINEKAAQ”, for which the protein production entry is recorded as “failed”.

Take “MKQPATPNAAEETKSEQKQKSKKFPTPTELISHYQKRGLEPAEASIKVIEDLQNALVRVVSSSRNASSKDKLVTDARKIDAINGRLAVVDAKLETKPGYVETFALGLASGATLNGISAVWPHVTRGIGQIWSAVRIGTDPSSTS”: the protein production entry is reported as “failed”.

“MKQTAESIRDRFMKLGIDVPVEDIESRLDELIKKFKVPSNEAQRSVTNYFLKKYSIPKNEFYVRQAEPQLTKIVDIVENGQWANLKAKVIQLWENTHESISQVGLLGDETGIIKFTIWKNAELPLLEQGESYLLRSVVVGEYNDRFQVQVNKNSSIEKLSEPIEVGGGDFTPAAREAELRNIADLTGNQWATVRGKVIQLWENSHESIEQAGLIGDETGVIKFTNWASSELPDMEEGRSYLLKNVVVNEWNGKAQVQLNRSSSIEELDEDIEVRTSMSSYFGAMVDIQTGSGLIKRCPECKRALVKGACAEHGKVKGEYDLRIKAVLDSGTSTQDALINRELTEELSGISLDSAIAMAADALDPGVVLDKLKHELVGRYYTITGHKLDRYILVESITPRTSLDRELLDQMLAEPIAQPEVELEHHHHHH”: the protein production result was “not failed”. Regarding “MKQWADDENLPMERYKNYQMIVPAFIIKDILDGKIPETFEDSKNIKMIEASWGEESYTKGHIPTSVHVNTDIIEPPPTWMLDNDDNLTKFALDYGLTKDDTVIVSSSTPMASYRLAVILRYIGVKDVRVLNGGTNSWLSAGYELEFISNPKLEHHHHHH”, the protein production entry is listed as “failed”. For “MKQWLAAMETSVLVMGALRLFSGSAEIFAALLMLYVNDAKKALFINGMLAFVGPTVLILTMTIGIASVASEISFLKLFFLALGICCIFIALLK” the value was “failed”; for “MKRAAAKHLIERYYHQLTEGCGNEACTNEFCASCPTFLRMDNNAAAIKALELYKINAKLCDPHP”, “not failed”. As for “MKRDGHTHTEFCPHGTHDDVEEMILKAIELDFDEYSIVEHAPLSSEFMKNTAGNQEAVTTASMSMSDLPYYFKKMNQMKKKYASDLLIHIGFEVDYLIGYEDFTRDFLNEYGPQTDDGVLSLHFLEGQGGFRSIDFTAEDYNEGIVQFYGGFEQAQLVYLAGVKQSIEADLGAFKPRRIGHISLCQKFQQFFGADGRDFTAEVIAEFEAILALVKKRGYELDFNTAGLFKPLCKETYPPKEIVTLARALEIPFVYGSDSHGVADIGRGYNTYCQKLEHHHHHH”, the entry is “not failed”; as for “MKREAEGGFQNRYLSNCPGSSRLRVWVPIVEASPGRRPYPFRCQPCNFRLGGRAVGGLAAAQPGGRPRWRRAARRAARAPAPPWLPLPSSPRSNPLTRLLPWFKSIDLNKPIDKRIYKGTQPTCHDFNQFTAATETISLLVGFSAGQVQYLDLIKKDTSKLFNEERLIDKTKVTYLKWLPESESLFLASHASGHLYLYNVSHPCASTPPQYSLLKQGEGFAVYAAKSKAPRNPLAKWAVGEGPLNEFAFSPDGRHLACVSQDGCLRVFHFDSMLLRGLMKSYFGGLLCVCWSPDGRYVVTGGEDDLVTVWSFTEGRVVARGHGHKSWVNAVAFDPYTTRAEETASASGDGDPSGEEEEPEATSSDTGAPVSPLPKAGSVTYRFGSAGQDTQFCLWDLTEDVLSPHPPLARTRTLPGTPGATPPASGGSRAGETGAGPLPRSLSRSNSLPHPAGGGKAGGPSVSMEPGVPFSIGRFATLTLQERRDRGAEKEHKRYHSLGNISRGGSGGNSSNDKLNGPAPRSRLDPAKVLGTALCPRIHEVPLLEPLVCKKIAQERLTVLLFLEDCIITACQEGLVCTWARPGKAFTDEETETQAGEASWPRSPSKSVVEGISSQPGSSPSGTVV”, “failed”. For “MKRFLSIAMALCIGLTMSLDANAKRFGGGKSVGAAPTHQTRQAAPTAPGAPAAAATAGAAGAAGAAAKAGGASRWLGPLAGIAAGGLLASMFMGGGFQGMQIFDILIMAVIAFVIFRFIAARRRKQQEQYAPAGHAPMQREAFEPQQPAGGSIFGGSPAPAARPVINAPAWFNEERFIEAARSHFQSLQQHWDANEMDKIAEFVTPQMLQFLKQERADLGDGFQSTYIDNLQVQLEGVDDRADKTIATLTFSGVSKTSRFDQGEVFSESWNMERAQGDNQPWLVAGIRQNG” the value was “failed”; for “MKRIIILSPFRGLFRSLLYFLLGLIMALISAGYFSQLFSIVGINRDIAIIISITISFLSLFSSPFNLVLTEVKKEAIAIEEDVVFFFGFPIFIPRISRQNMNTLIAVNLGGALIPLGVSLFLMYELQAYIVYFIINIIVVIIVSKLFSRVIRGVGVIMHPIIPSIFSVISSYVLFYKLHILIPLSAYIGSVLGTLIGADLLNLRRIINEARPQVISIGGMGTFDGIFVSGIISVFISELLVII”, “failed”. As to “MKRKHLSGKSIGIVFGTFAPMHVGHVDLITKEKRANDNVLVIVSGSNTQKDRGTRTGLSLNRRFRNVREIFYDDELIVVDKLDEADMPPYPEGWVPWVNRVKDLITKNTDGPEKITFYVGESEYVIELNRYYPQAQVELIECSVINISATEIRDNPIENWRFITKPFRRHF”, the protein production entry is recorded as “failed”. As for “MKRLAKTTLMTAMVAMVSFSIYAQTGRDIAQRVKDRPDGDTRRSELTMKLINKRGAVRERKLISYSIDMGKDKKDKKTIMFFLYPGDVKGTGFLTWDYDQIGKDDDKWLYLPAMKKTRRISGASAKKDYFMGSDFTYDDMGSRNVDEDTHKLLGEETFDGHKCWKLESTSKDQRDVFSKKIAWIRQDCLIPVRVEYYDRMNRLHRLLELSDIAQVDGFWMAQKMNMSNVQTGHRTVLEIKKPEFNRPIDESKFTVTSLEKGSL”, the entry is “not failed”; as for “MKRLALALKQRKVASWKLEEVKELTELIKNSNTILIGNLEGFPADKLHEIRKKLRGKATIKVTKNTLFKIAAKNAGIDIEKLEQYLTGPNVFIFTKDNPFITNMFFENYKLRRYAMPGDKAEEEVVIPAGDTGMPAGPILSVFGKLKVQTKVQDGKVHVVKDTVVAKPGDVIPAEALPILQKLGIMPVYVKLKIKVAYHEGLVIPAESLKLDLEGYRSNITEAYRNAFTLAVEIAYPTPDVLKFTISKVFKNAIALASEIGYITPESAQAVISKAVAKAYALATAIGGKVDLGVQLPTVQQSQSQQPAAEEKKEEKKEEEKKGPSEEEIASGLASLFG”, “failed”. For “MKRLEVSNQAKLPTQFGEFYIQCFREKGSNGSKDHLVVFTPNFSQNPLVRLHSECLTGDALGSQKCDCGGALQMALERISKEGGLVIYLRQEGRGIGLFNKVNAYALQDKGYDTIQANEMIGFKDDERDYSVAGEILEYYRIKKMRLLTNNPKKIAALEKYAEVTRESLIVCANEHNQGYLEVKKLKMGHLL” the value was “failed”. As for “MKRLLFTVISLLFSVSVLAAESSADRIDLTSSTVGYAAIVIFILAYILVMGEEKLHMRKSKPVLVAAGVIWILIGFVYTGDNAVLAEEAFRENLLKFAELMLFLLVAMTYINALEERRLFDALSAWLMKKGFTYRKLFWITGFLAFFISPIADNLTTALLMSAVVMKVAEGNKKFVALCCSSIVIAVNAAGAFSPFGDITTLMVWQSGKVEFTEFLQLFVPALVNYLIPAVIMSFFIENKSPTTLHTEVELKRGALRITFLFLLTVATAVACHIWLHLPPVLGMMMGLGYLQFFGYFLRMTLPGSLARKRAMAAREGDQKRLQQLGGVVPFDVFSRVSRAEWDTLLFFYGIVLCVGGLGFMGYLGLLSESLYGGLDPTIANSILGVVSALVDNIPVMFAVLSMDPEMSTGHWLLITLACCTGGSLLSIGSASGVALMGQARGYYTFMSHLKWTPVIAIGYAASILLHLWLNQATFLS”, the entry is “failed”; as for “MKRLMFIGPSQCGKTSLTQSLRGEALHYKKTQAIEWSPMAIDTPGEYLENRCLYSALLTSACEADVIALVLNADAQWSPFSPGFTVPMNRPTIGLVTKADLADPQRISLVAQWLTQAGARQIFITSALNNSGLDAVLDFLNSKEPLCLTKLEHHHHHH”, “failed”; as for “MKRSDNVSWSQLKGGIFILVALAFFAGGVLLMGDKTKFFVPKGRLSVIMADVAGLKAGAPVWLAGVDVGVVTQIHFERPEATNEVEIVLEVDREALKKIGADSVVTVKTRGLMGEKYVDITPTREIVAKPVTRLQGTPMPKLDDVVQKAGRAFDRVDAIVAKTERGEGTLGRFASDPKLYDSLVRLTTELNAVAVSVNRGEGTLGMLNKSREPYEKLMSILNRADNTLTDIQSSEGTMSKLIHDRELYDKLVAVASKAGTAADEVRELNRRLLSKDGTLGKLVADREFYDRGLTLINRADTSLKSLEEVTARLQRGEGTAGKLLSDRELYDRLNRTVDDLDLLVKDIKENPKRYVKFSVFLEHHHHHH”, “failed”. Regarding “MKRWIAIILIALMPAAQAGKAAKVTLVVDDVPVVQVLQALAEQERQNLVVSPDVSGTLSLHLTDVPWKQALQTVVNSAGLVLRQEGNILHVHSQAWQKEHSARQDAERLRLQANLPLENRSISLQYVDTGELAKAGEKLLSAKGTIMVDKRTNRLLLRDNRAALAELEKWVSQMDLPVAQVELAAHIVTINEKSLRELGVKWTLADATQAGAVGDVTTLSSDLSVAAATSRVGFNIGRINGRLLDLELSALEQKQQLDIIASPRLLASHLQPASIKQGSEIPYQVSSGESGATSVEFKEAVLGMEVTPTVLQKGRIRLKLHISQNVPGQVLQQADGEVLAIDKQEIETQVEVKSGETLALGGIFSRKNKSGSDSVPLLGDIPWLGQLFRHDGKEDERRELVVFITPRLVATE”, the protein production result is given as “failed”.

For “MKRWQMEWLLVSVALVWGANYTIGKYGVAFMSSIQFNSLRFLVASPVLLLITFLMERSLRIERKDWLRLVAVGIVGTTMYQTMFMLSVKYTSATNASLLIAMSPIFTGILAVLHKQERFSMKVQIGSIVAFIGAAFVLLTGHTGGATYEYAWLGNIIGLVAAIAWGWYPILAQPLITKYSAMRVTSWSTLIGIVPLVIYCLFNVNTLTWPVDTPSWGSLAYSIVFATIFGLAMWYVGISQIGSTKVMVYMYLVPLFAVIFAAVIIGEQINMMQLVGGLIIFIGLYVVKKGGMKKPALNLKKVS”, the protein production entry is given as “failed”.

As for “MKSACSIITASIVLYKSKPDIIRDVITSFFSDTVTKKKLILIDNSPTDSLRVLQEERPEDIQYFFNNRNIGFGSAHNIGIREAARFNPSYHLILNPDVQFGPEVVPTLASYMDENPDIGLLMPQVYYPNGELQHLCKLFPRPWDVMLRRFVPYRSYRERNNERFELRNWSYDTIQDIPSLSGCFMFARMDILREVGGFDERFFMYAEDLDLCRRIGQVSRTVFFPKVSIMHTYAKGSYHDAKLLRHHIVSLIRYFNKWGWLFDAERRRVNRACLAVLRNQTTVKKD”, the protein production entry is given as “failed”.

On to “MKSAPDWIAHPDTPYLLIDEAKLKSNINYLKQRVESLGSHLRPHLKTLRTLEAAGYLLDSKSAPATVSTLAEAEAYAKAGYTDLLYAVGIAPAKLKRVAALRQQGINLHILLDNITQAQAVVDYAAEFGQDFSVFIEIDSDDHRGGIKPSDSKLLTIAKTLGEHFTGLMTHAGGSYACNTEQGLKNFAKQECDAVRIARNNLETAGIHCAITSVGSTPTAHFGEDFSDISEVRAGVYTTFDLVMKNIGVCDFSHIAMSVVTTVIGHNKEKNWLLTDSGWMALSRDSGTAGQNRDFGYGQVCKIDGSVLDGLCVNSTSQEHGVIELSDAYQLEDFPVGHQLRIMPNHACATAAMHPVYHVLMSDGSHNTWQRITGW”, for which the protein production result is recorded as “not failed”. For “MKSEFYQGKIKQYDATKGFGFIGGLEQDVFFHISDFPLEEGEPKRNERVKFMVVENNGKFKAVKIQRVVDQSAKAKKSRAVENNTSITSALLSNFKK” the value was “failed”.
